Target: gp120 (derived from isolate YU2) (HIV-1 isolate YU2, UniProt P35961)
Experiment: ELISA

B1: CD4bs MAb F105 (antibody, V domains shown)
VH: QVQLQESGPGLVKPSETLSLTCTVSGGSISSHYWSWIRQSPGKGLQWIGYIYYSGSTNYSPSLKSRVTISVETAKNQFSLKLTSMTAADTAVYYCARGPVPAVFYGDYRLDPWGQGTLVTVSS
VL: EIVLTQSPGTLSLSAGERATLSCRASQSVSSRYLAWYQQKPGQAPRLLIYGASSRATGIPDRFSGSGSGTDFTLTISRVEPEDFAVYYCQQYDNSVCTFGQGTKLEIK
B1: binds.

Reference: article PMC5117957 (Journal of immunology (Baltimore, Md. : 1950), 2016)
